From patent US20240368668A1, “SUBSTRATES AND BIOMARKERS OF ADAMTS7” (The Broad Institute, Inc., priority 2021, published 2024)
Square brackets hold non-standard residues; d marks the D form. Ends that are not written are not given here. Met(O) = CS(=O)CC[C@H](N)C(=O)O

Molecular target: T1, mouse ADAMTS7 (Mus musculus, UniProt Q68SA9, E373Q)
T1 construct: Full-length mouse Adamts7 1-1857 (Uniprot Q68SA9, WT or E373Q catalytic mutant); expressed in transfected cells; host or cells: Human Coronary Artery Smooth Muscle Cells (HCA-SMC, Lonza), adenovirus 50 MOI
T1 sequence (Q68SA9 221-1657 E373Q): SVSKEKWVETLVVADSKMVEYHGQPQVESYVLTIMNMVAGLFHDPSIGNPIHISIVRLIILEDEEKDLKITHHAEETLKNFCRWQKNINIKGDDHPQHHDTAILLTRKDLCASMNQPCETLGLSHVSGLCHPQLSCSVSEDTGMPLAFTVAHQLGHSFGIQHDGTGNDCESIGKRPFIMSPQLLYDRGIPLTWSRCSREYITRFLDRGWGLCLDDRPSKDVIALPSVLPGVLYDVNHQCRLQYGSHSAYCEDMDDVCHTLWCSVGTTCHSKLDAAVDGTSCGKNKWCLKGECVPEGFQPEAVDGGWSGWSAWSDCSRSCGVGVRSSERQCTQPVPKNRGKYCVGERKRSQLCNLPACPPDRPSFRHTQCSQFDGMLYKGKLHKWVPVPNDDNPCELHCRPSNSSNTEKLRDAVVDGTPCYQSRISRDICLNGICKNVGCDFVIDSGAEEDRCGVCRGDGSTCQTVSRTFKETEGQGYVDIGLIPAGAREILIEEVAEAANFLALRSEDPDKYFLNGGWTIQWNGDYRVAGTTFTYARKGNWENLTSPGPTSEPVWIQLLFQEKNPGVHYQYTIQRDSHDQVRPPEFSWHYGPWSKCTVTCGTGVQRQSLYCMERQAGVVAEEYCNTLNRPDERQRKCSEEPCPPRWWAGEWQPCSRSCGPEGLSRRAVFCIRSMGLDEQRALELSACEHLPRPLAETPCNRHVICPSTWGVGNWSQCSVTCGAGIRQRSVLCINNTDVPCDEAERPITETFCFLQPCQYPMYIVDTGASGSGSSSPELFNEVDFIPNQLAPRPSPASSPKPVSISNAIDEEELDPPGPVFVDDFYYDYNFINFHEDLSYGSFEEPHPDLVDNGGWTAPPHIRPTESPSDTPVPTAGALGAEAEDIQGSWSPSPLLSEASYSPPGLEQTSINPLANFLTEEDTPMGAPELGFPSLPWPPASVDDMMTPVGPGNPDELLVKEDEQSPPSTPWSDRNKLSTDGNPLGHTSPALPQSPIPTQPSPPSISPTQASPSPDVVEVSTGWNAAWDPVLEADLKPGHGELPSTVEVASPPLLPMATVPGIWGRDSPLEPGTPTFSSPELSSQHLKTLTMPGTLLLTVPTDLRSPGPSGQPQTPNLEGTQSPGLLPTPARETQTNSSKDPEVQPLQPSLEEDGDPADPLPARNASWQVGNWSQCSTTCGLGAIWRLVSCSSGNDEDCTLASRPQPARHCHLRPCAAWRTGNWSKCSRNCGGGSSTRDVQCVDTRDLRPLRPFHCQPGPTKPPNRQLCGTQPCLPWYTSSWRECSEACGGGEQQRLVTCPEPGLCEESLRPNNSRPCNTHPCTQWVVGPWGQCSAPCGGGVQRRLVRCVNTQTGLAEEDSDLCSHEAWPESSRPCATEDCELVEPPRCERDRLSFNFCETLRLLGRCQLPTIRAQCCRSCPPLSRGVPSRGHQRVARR
Assay: TMT10 TAILS N-terminomics, SMC2 experiment (process replicates, trypsin/AspN digest)
Type: cell-based
Method in brief: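 Full-length mouse ADAMTS7 (WT or E373Q mutant, C-terminal 3xFLAG) or luciferase was transduced via adenovirus, 50 MOI, into HCA-SMC (SMC1, SMC2) or HUVEC. SMC1: pooled media, technical triplicates 400 ug; SMC2: process triplicates 300 ug; HUVEC: process triplicates 200 ug, bFGF2 10 ng/ml.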

[1] = SMC2_TAILS HC, log fold change of N-terminal peptide, Ad-mADAMTS7 EQ over Luc
[2] = log fold change, ADAMTS7 EQ over luciferase
[3] = SMC2_TAILS HC, log fold change, mEQ over Luc

Row | Substance | logFC.mEQ.over.Luc [1] | logFC.mEQ.over.Luc [2] | logFC.mEQ.over.Luc [3]
1 | THBS2_290 (LSENLKR; listed as Homo sapiens) |  | 0.59 | 
2 | QSOX1_210 (HKGVAVR; listed as Homo sapiens) | −0.49 |  | 
3 | NBEA_1892 (LEKVAPLLR; listed as Homo sapiens) | −0.08 |  | 
4 | MMP1_185 (FQPGPGIGG; listed as Homo sapiens) | −0.37 |  | 
5 | COL4A2_71 (YNGPPGLQGFPGLQGR; listed as Homo sapiens) |  |  | −0.32
6 | MMP1_100 (FVLTEGNPR; listed as Homo sapiens) | −0.05 |  | 
7 | VIM_333 (LKGTNESLER; listed as Homo sapiens) | −0.09 | −0.03 | 
8 | SPOCK1_27 (LAGGAGPNHGNFL; listed as Homo sapiens) | −0.65 |  | 
9 | COL1A2_305 (LTGAKGAAGLPGVAGAPGLPGPR; listed as Homo sapiens) |  |  | −0.32
10 | COL1A2_630 (VGTAGPSGPSGLPGER; listed as Homo sapiens) |  |  | −0.30
11 | LOXL1_218 (AVASAGVIYPYQPR; listed as Homo sapiens) | −0.11 |  | 
12 | NID2_291 (HSSVPLGR; listed as Homo sapiens) | 0.00 |  | 
13 | LTBP2_79 (VAGLQPVER; listed as Homo sapiens) | −0.09 |  | 
14 | LTBP2_250 (SAAGEGTLAR; listed as Homo sapiens) | −0.21 |  | 
15 | VAT1_42 (AASPPLLR; listed as Homo sapiens) | 0.27 |  | 
16 | COL1A2_270 (VGNAGPAGPAGPR; listed as Homo sapiens) |  |  | −0.05
17 | TNPO2_744 (VQ[Met(O)]VLNNLVEII[code n]RP[code n]TPKTLLE; listed as Homo sapiens) | 0.06 |  | 
18 | PLIN3_75 (VSGAQPILSKL; listed as Homo sapiens) | 0.07 |  | 
19 | SRGN_59 (LLPGESNKIPR; listed as Homo sapiens) | 0.05 | −0.10 | 
20 | COL1A2_1028 (LQGLPGIAGHHGDQGAPGSVGPAGPR; listed as Homo sapiens) |  |  | −0.25
21 | POSTN_727 (IITGPEIKYTR; listed as Homo sapiens) | −0.09 |  | 
22 | TRGC2_86 (HRCIVRHENNK; listed as Homo sapiens) | 0.23 |  | 
23 | NID1_360 (FHQQHPQVI; listed as Homo sapiens) | −0.22 |  | 
24 | PPP1R18_295 (LSETLTR; listed as Homo sapiens) | 0.03 |  | 

Second part, the substance after the results:

Row | logFC.mEQ.over.Luc [1] | logFC.mEQ.over.Luc [2] | logFC.mEQ.over.Luc [3] | Substance
25 | −0.92 |  |  | LTBP3_103 (LTGSGFR; listed as Homo sapiens)
26 | −0.02 |  |  | MAP4_815 (AVASTGPSSR; listed as Homo sapiens)
27 |  |  | −0.16 | COL1A2_960 (AGAPGPHGPVGPAGKHGNR; listed as Homo sapiens)
28 | −0.22 | 0.03 |  | VIM_314 (QESTEYR; listed as Homo sapiens)
29 | 0.69 |  |  | PAK4_141 (HSEAGGGSG; listed as Homo sapiens)
30 |  |  | −0.33 | COL1A2_80 (QYDGKGVGLGPGPMGLMGPR; listed as Homo sapiens)
31 | 0.11 |  |  | LOXL2_45 (HQPQAPANVAKIQLR; listed as Homo sapiens)
32 | −0.59 |  |  | TNS1_236 (QEGLAGYQR; listed as Homo sapiens)
33 | 0.02 |  |  | MAP4_816 (VASTGPSSR; listed as Homo sapiens)
34 |  |  | −0.46 | COL1A2_866 (LLGAPGILGLPGSR; listed as Homo sapiens)
35 | −0.19 |  |  | TTN_5975 (VKEPPVEFTKPL; listed as Homo sapiens)
36 | −0.06 |  |  | NID2_951 (YAYPGAR; listed as Homo sapiens)
37 | −0.10 |  |  | LTBP2_290 (QHVGLSR; listed as Homo sapiens)
38 |  | −0.09 |  | SERBP1_56 (QAAAQTNSNAAGKQLR; listed as Homo sapiens)
39 | −0.03 |  |  | LTBP3_208 (FLVPLGPGQISA; listed as Homo sapiens)
40 | 0.04 |  |  | SHC2_267 (VAKDPINQRACHIL; listed as Homo sapiens)
41 | −0.18 |  |  | LTBP2_502 (LVENSVETRPPPWLPASPGHSLW; listed as Homo sapiens)
42 | −0.08 |  |  | PTPRF_1859 (MRYEGVVDMFQTVKTLR; listed as Homo sapiens)
43 |  |  | −0.01 | COL18A1_1505 (LQPPVVQLHDSNPYPR; listed as Homo sapiens)
